Results from doi:10.1101/2025.06.12.659319, “A bipartite, mutation-tolerant NLS regulates interaction of ΔNp63α with importin alpha, nuclear transport and transcriptional activity” (bioRxiv, 2025).
Where no end group is shown, it is not given here. The star is where a group is joined. FITC = O=C1OC2(c3ccc(O)cc3Oc3cc(O)ccc32)c2ccc(NC(=S)*)cc21

Molecular target: mouse IMPα2ΔIBB (importin α2 lacking the IMPβ1 binding domain) (mouse, UniProt P52293 70-529)
Experiment: crystal structure; IMPα2ΔIBB crystals (hanging drop, 650 mM sodium citrate, 100 mM HEPES pH 6.5, 10 mM DTT, 23°C) soaked with the peptide; 2.20 Å
Conditions: both partners purified

B1: FITC-ΔNp63α NLSbip peptide (residues 278-302) (peptide)
peptide: {FITC}-DGTKRPFRQNTHGIQMTSIKKRRSP
notes: ΔNp63α (p63), human, residues 278-302, bipartite NLS; numbers count on: the ΔNp63α isoform (Q9H3D4-2); also called p63 NLS; source: synthetic peptide (GenScript)
B1: binds.
